Measured values: article PMC3303803, “Identification of the First Functional Toxin-Antitoxin System in Streptomyces” (PLoS ONE, 2012)

T1: YefMsl-YoeBsl antitoxin (untagged YefM of natural complex);YoeB-His6sl (toxin) (Streptomyces lividans 1326?;Streptomyces lividans 1326?), ORF:ca022027+Q9Z4V8
T1 sequence 1: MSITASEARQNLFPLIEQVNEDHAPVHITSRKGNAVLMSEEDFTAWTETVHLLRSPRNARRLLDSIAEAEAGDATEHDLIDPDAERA
T1 sequence 2: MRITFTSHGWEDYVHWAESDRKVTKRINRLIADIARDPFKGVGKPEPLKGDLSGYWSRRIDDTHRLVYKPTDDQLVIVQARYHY

T2: YefM-His6sl (antitoxin);YoeB-His6sl (toxin) (Streptomyces lividans 1326?;Streptomyces lividans 1326?), ORF:ca022027+Q9Z4V8
T2 sequence 1: T1 sequence 1
T2 sequence 2: T1 sequence 2

T3: S. lividans antitoxin YefM-His6sl (Streptomyces lividans, UniProt Q9Z4V7 1-87)
T3 construct: YefMsl, putative antitoxin of the yefM/yoeBsl operon of Streptomyces lividans 1326; identical to S. coelicolor SCO2235 (YefMsc); 9.7 kDa; Cloned with primers LS-005/LS-022 between NdeI and XhoI of pET22b; also called YefMsl; source: E. coli BL21 (DE3), pET22b-Anti, purified (NTA-Ni, dialysis); not shown: His6, C-terminal, kept
T3 sequence (looked up): T1 sequence 1

B1: S. lividans toxin YoeB-His6sl (natural protein, Streptomyces lividans, UniProt Q9Z4V8 1-84, looked up)
chain: T1 sequence 2
notes: also called YoeBsl; toxin-His6; not shown: His6, C-terminal, kept

Tests used:
[1] = system: T1, YefMsl-YoeBsl antitoxin (untagged YefM of natural complex);YoeB-His6sl (toxin) (Streptomyces lividans 1326?;Streptomyces lividans 1326?), ORF:ca022027+Q9Z4V8; assay: EMSA
[2] = system: T2, YefM-His6sl (antitoxin);YoeB-His6sl (toxin) (Streptomyces lividans 1326?;Streptomyces lividans 1326?), ORF:ca022027+Q9Z4V8; assay: EMSA
[3] = molecular target: T3, S. lividans antitoxin YefM-His6sl; assay: native gel or EMSA; conditions: both partners purified

Molecule | binding [1] | binding [2] | binding result [3]
TTTTTTCATATGACCAGTGCCTCCCTTCCTCGGCTGGTACAAGATATCGTACGAGTCTGGGACGGTCCACCGGAAAGCGGGAGCGGTACGTCCCGGCGCCCGCACGCCGTTCCCCGGCTACGCTCAGCCCGTACGACCTTGATCCGACCGGGCCCACGTGCCCCGCAGCCCGACAGGAGGCCGAGAATTCAAAAAA (double strand) [TA promoter (yefM/yoeBsl intergenic region)] | binds | binds | –
B1 | – | – | binds
